The supplement of paper PMC12042874
± gives the uncertainty stated by the source.

experiment: amyloid nucleation score (Sup35N fusion, yeast selection) (log enrichment); library NNK2; higher = more nucleation; inactive = no reads after selection
Procedure, shortened: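 Growth for 7 days at 30°C on medium lacking adenine and uracil followed a 24-hour induction with 100 μM copper sulfate of psi-negative yeast expressing peptides of 20 random codons fused to Sup35N. Input and output plasmid inserts were sequenced with Illumina, and sequences with under 100 input reads were excluded. Nucleation score is the DiMSum log enrichment of output over input reads, centred on the mode score of non-aggregating sequences.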

Substance | amyloid nucleation score
NLVCNSLFRDDKVSTELTEM | inactive
RTEGRGCRAAWSK | 0.101 ± 0.76
ANLLKTRRVMYRGFG | 0.611 ± 0.38
FCWRNCLNVIDTF | -1.22 ± 0.35
LSWVRAIS | 0.2 ± 0.38
RPLFEFWPKPPL | 2.17 ± 0.14
SFRQIATLYEKMFNDNGNGI | -0.528 ± 0.37
ASLGPRFTDRTVQSHVNTRC | 0.147 ± 0.41
WFHGTGSQHS | inactive
RGLAES | -0.2 ± 0.24
VIKGIEGVHGEKHVVYKVIC | 4.19 ± 0.065
MFLNPQPVFDLISFNVVSTP | 9.306 ± 0.032
SSFFRISS | -0.907 ± 1
RNSIFNG | -0.796 ± 0.62
NFVIQ | 0.011 ± 0.56
FISMGQGRPEFLWVFVDVGD | 0.092 ± 1.1
SLYCGGQMLD | inactive
LMYSTFMYHRKHWLLALNQN | 0.034 ± 1.1
SVLEANMHAVWTGRYEN | 0.713 ± 0.22
HLLLEKDPSVWLWPKNRPGS | 3.35 ± 0.088
SYVQMTDT | -0.146 ± 1
FSIVFGI | 1.17 ± 0.15
VNLLFVVLCTMGSVSFKNSC | 7.768 ± 0.036
FEAINMSQQCIYCFPMSRNI | 7.388 ± 0.053
MSLVSRNSTSKHLNIVFSLI | 5.057 ± 0.045

Substance | amyloid nucleation score
TIFSHVYLALLR | 0.382 ± 0.8
LWFLVFMDMVRRWRGNHRGE | -0.656 ± 1.1
SVKHGMLCYTLLDNMRCTVE | -0.087 ± 0.26
GRCYDFCHFYKQGRYSLGWV | -1.06 ± 0.63
VLMINWMKVADFHEYFFICH | 6.3 ± 0.066
FFRLIGDGGYCCFPCKSDVR | 2.54 ± 0.077
NNPWFCGGSLWLYGSQYSPS | 3.23 ± 0.078
MSSCLRL | 4.51 ± 0.056
SWEKIGDCYIRWYLLHAGCL | inactive
SPQLTIYPRMYSRSLVLNRC | 0.078 ± 0.77
VNIVVILFIVADIKWRRF | 3.15 ± 0.12
IDWIGPIYMHIAVMMVTVFQ | 4.924 ± 0.033
RMVKLDDNVKYYVKSVEGYE | 0.276 ± 0.6
CIVAFEFLYWCRRIAFNPGG | -0.475 ± 0.31
KLQLVTLW | 3.66 ± 0.072
MFFNLAI | inactive
FRWCKRMGLCNLVNDLGCDW | 0.446 ± 0.64
FFYHLCASVRLA | -1.11 ± 0.78
TPTGSVLAYRVTISTKVVSL | 1.09 ± 0.38
VVSPRVTGNME | 0.302 ± 0.23
LGYFFGSTFSRAVLFVRLRR | -0.097 ± 0.52
SLIDLLPCFFICRGRCFPSV | -0.672 ± 0.37
CWLGASTSNGLPAAGPSGLH | 0.868 ± 0.55
VDYGQRAPTCITSHYHLNRC | 0.227 ± 1.1
YSFRGWSSSVWVTGWCGRSA | 0.45 ± 0.62

Substance | amyloid nucleation score
YSFVCIRIGPLKEVCKLNSC | -0.774 ± 1.1
FNDGTQKSTLACVRNKYRVY | 0.633 ± 0.57
TQVLYSSCFVVVLSYLSRQD | 4.51 ± 0.086
NYQGI | -0.874 ± 0.56
NPGVDQTHFLGFLI | -1.85 ± 1.1
NRICYRLGCLRADNDNDLSG | -0.234 ± 0.26
PAVSYFFITFYVIVRFRLAE | 2.86 ± 0.18
TESGGSLYNPQLIPDIQGSH | -0.552 ± 1.1
NTYVRSRHMAMSYCRMQMCL | 0.141 ± 0.27
YLFKPSPTSHYCAFCTVYRN | 3.84 ± 0.079
CFCPMLLLYIVRP | 7.483 ± 0.023
ILLRWNSTSTEVHHVGPTWV | 0.872 ± 0.42
HTDCYLWLKLYSTLGILFVF | inactive
SIFNFKATFGNSSRDVMSDD | 3.28 ± 0.057
DSRCDRAPDCGMNHCIYILC | 6.76 ± 0.082
AHSKHPGTYGQFMSEQSGEA | 0.767 ± 0.51
ADNFICIIETYSYILVWRSS | -0.552 ± 0.78
VVSFSVRSIPCSRVSFMAFS | -0.304 ± 0.54
AFSSLFWIWIPSNMRSQVLK | 0.124 ± 0.42
YLLRYYGGSFNHLMCWFRSP | 2.6 ± 0.06
LYENWPCFT | -0.199 ± 0.53
HVFLINLGLNCGQRYRYRSL | 6.044 ± 0.047
VVRGRSGLCNMFWCDRQRRL | -0.63 ± 0.34
TPTYLRYIVVIYL | 2.41 ± 0.11
AVSTMGIVSIVF | inactive

Substance | amyloid nucleation score
LRLFCDMYTISSNAVDFVKF | inactive
VRGAVSLL | -0.64 ± 0.29
CNFYCPRDPQSSIVSYTMSY | -0.159 ± 1
GDKLIEGRASGKGNWILERG | 1.19 ± 0.34
YASISI | inactive
YVWSWVGQYCRVIAAHGIWW | 0.79 ± 0.26
QLALLMFMQTFNSYS | 7.43 ± 0.059
GTRYSLCTRCG | 0.766 ± 0.5
HNSLMRMVWLNKHPK | -0.095 ± 0.8
LDLMKSSLGCQKG | -0.001 ± 0.23
YCHLVV | 2.04 ± 0.087
WFYTYSLFGFVVNIVFTYPL | -0.176 ± 0.36
NFPAWCV | 0.495 ± 0.19
HSSIIKSVAWAFNYDA | 0.159 ± 0.42
LYGNYDTSYTLIQVISLRNG | 6.202 ± 0.04
TIIIREQSKPFPCLE | 0.931 ± 0.74
REGVQVIQTGLVEYKLG | -0.029 ± 0.79
MVVNVGK | -0.088 ± 0.17
WSNGR | 0.329 ± 0.44
WLNYLGFISFRICH | -1.66 ± 0.41
TLRVLCTVCYSMDRVAA | inactive
AVDAVGSLMKRALRLRSMFG | 1.12 ± 0.44
SFRFGEKDCWLDCCRVMRKK | 5.59 ± 0.068
ASAVV | 0.402 ± 0.26
YYLFGKF | -0.509 ± 1.1

Substance | amyloid nucleation score
YPYSPLSKRRNLRWINFVRC | -1.46 ± 1.1
NATCPRHCRDHQGSYYRHCL | 0.499 ± 0.28
WNVWVYLAAAVSGGGPTCVS | 4.72 ± 0.076
CPLEAYLD | inactive
LQVMEIYSLSIYYIYFLYIG | inactive
THDKLHFLAFVFSPLFLTTM | inactive
GKGDVGESRADCLAYSRRMS | 0.868 ± 0.45
LFTIVTTFKRS | 6.443 ± 0.056
IVNCCSYLYTRIHNVGPAGN | 6.383 ± 0.063
LDLCTPRSNKTMVNHDINYF | -1.64 ± 0.77
FYTYDLSFMSNYSVLRVLCS | -1.48 ± 0.62
FLFGLSIMLLNKEPGRCFRG | 5.23 ± 0.097
VTMYPFRRIVGRQQLMAWLY | 0.973 ± 0.38
REFLMD | inactive
FSYLAI | -0.896 ± 0.61
WFSLFLPPVSSKRQPADEMA | -0.317 ± 1.1
SHTDYHRFAWMF | -1.74 ± 0.53
SNAVNCLLCVLTRDLIWMDA | 8.958 ± 0.067
AFPTKCNVRSMSMHRLLLLC | inactive
SVYEIYWRVT | -0.348 ± 0.65
VLNVNDFPNYGRRSCSTNSF | 3.18 ± 0.17
NCWNLICLKSSFRR | 9.054 ± 0.05
VTSLHSYSMMFPPMWMSNQS | 1.54 ± 0.32
VRSMTELGPRLVAGK | 1.45 ± 0.33
GYLVTLWD | 1.03 ± 0.49

Substance | amyloid nucleation score
HLCGGHGLVFFWGFVTMKCG | 0.369 ± 0.8
FFNAR | -0.951 ± 0.62
VHCDYVIELGPGWWVRNWGS | 0.42 ± 0.54
TLMYSQSAIDWTMSSPGRCR | 1.49 ± 0.36
ISKLSARSLSRVVNLYKGVA | 0.85 ± 0.17
HREKAGSPSCREI | -0.347 ± 1
EFFFRLMTDPTN | -0.376 ± 0.63
TYMWTSLEST | inactive
SFLVISWRADRFAA | 5.124 ± 0.042
VAYLNLCLS | inactive
FKDRYRTGFSDVRNQVAHSV | inactive
VVNTVYSFSE | 0.332 ± 0.35
CVVECIRSNHPSNFMMRNLG | inactive
AFGNNDDLGARRYGMATPGR | 0.746 ± 0.62
SDRFMIVVDWVILVVLCMT | -0.611 ± 0.39
IFPFLDFRRFFLVYHVGPIS | 2.4 ± 0.24
CIMRGREQDFWQSDY | 0.116 ± 0.23
GRVMMEC | 0.465 ± 0.33
IMVVYETSVAGPRTSRGYCL | 4.729 ± 0.041
RILTVYVPV | 1.19 ± 0.39
SNLNLFITYLTLSTNDR | 9.225 ± 0.042
CEWHYRRGFMMIGVMWNAVF | 0.427 ± 0.36
LYPCYYCRAEKVHVRLDFTR | -0.517 ± 0.23
FQSVLCYE | -0.708 ± 0.54
VANRIMLGSLGMGFVVGSSM | -0.033 ± 0.43

Substance | amyloid nucleation score
DGIDTCGMCL | -0.096 ± 0.63
GTPDYGCSSNVYCD | inactive
YKSDYSKLLCWKNYKFWLVC | -1.07 ± 0.37
SNNWSLDMRRPVFKPPYGEG | -0.744 ± 0.53
PRGLATRPLFNRVYLHWYLL | -0.639 ± 0.61
AYMVEWEENHSESSVA | -0.383 ± 1
VDRIESVSYLYSHDYNESGP | -0.212 ± 0.53
AFPPE | -0.726 ± 1.1
STCTLKCWRWMPWTSFSFRC | 1.3 ± 0.21
TLFLSNFRFRCRFPDHALIS | -1.3 ± 0.48
MVANG | 0.317 ± 0.62
WIARC | -0.149 ± 0.42
WLMGVRG | -1.01 ± 0.64
TLKRSRPVLYNLYNGFVVVA | 2.25 ± 0.21
KFILCCLFPTYGREFCTSGL | 8.921 ± 0.068
AFWLL | 1.81 ± 0.093
SVKILPVISTTPFGV | -0.922 ± 0.39
MSMLNRALGILKSTFMINRR | -0.058 ± 0.53
WYKVDFNAWLFCKTIAHIFA | -1.1 ± 0.45
RSSLIIALCWFR | 5.54 ± 0.059
TWSEWSTCRMGATRSH | 0.301 ± 0.27
YYSFPISIGWVSNCMFVWEV | 6.53 ± 0.073
IMIMYFCCDMGRLGP | 8.458 ± 0.056
VHSSVRQMSDY | 0.168 ± 0.4
